Test results taken from paper PMC2112731.

Molecular target: F-actin in a glycerinated muscle fiber (rabbit (endogenous in psoas muscle fiber)) (UniProt P68135)
Assay: fluorescence intensity of a labeled muscle fiber

phalloidin-(fluorescein isothiocyanate) FITC complex (peptide)
stoichiometry N (mol of the toxin per mol of actin): 1
